Molecular target: T1, Mre11/Rad50 complex (Q9UZC9, Q9UZC8), HIS fusion (Pyrococcus abyssi, UniProt Q9UZC9 1-415; Q9UZC8 1-880)
T1 construct: Mre11 of Pyrococcus abyssi, full length, in the FL complex; Rad50 of Pyrococcus abyssi, full length, in the FL complex; also called Mre11 complex; source: E. coli Rosetta, purified on magnetic beads (details in Materials S1); not shown: His tag, N-terminal, kept
Test: pull-down; 10 ug HIS fusion Mre11/Rad50 immobilised on Co2+ magnetic beads, with or without DNase I treatment, incubated with 0.5 ug PCNA 1 h at room temperature in TrisHCl 20 mM pH 8, NaCl 150 mM, DTT 1 mM with BSA; Western blot with anti-PCNA and anti-HisTag
Details: both partners purified

T1 sequence (Q9UZC9 whole entry, chain 1 of 2, the tested form may be a part): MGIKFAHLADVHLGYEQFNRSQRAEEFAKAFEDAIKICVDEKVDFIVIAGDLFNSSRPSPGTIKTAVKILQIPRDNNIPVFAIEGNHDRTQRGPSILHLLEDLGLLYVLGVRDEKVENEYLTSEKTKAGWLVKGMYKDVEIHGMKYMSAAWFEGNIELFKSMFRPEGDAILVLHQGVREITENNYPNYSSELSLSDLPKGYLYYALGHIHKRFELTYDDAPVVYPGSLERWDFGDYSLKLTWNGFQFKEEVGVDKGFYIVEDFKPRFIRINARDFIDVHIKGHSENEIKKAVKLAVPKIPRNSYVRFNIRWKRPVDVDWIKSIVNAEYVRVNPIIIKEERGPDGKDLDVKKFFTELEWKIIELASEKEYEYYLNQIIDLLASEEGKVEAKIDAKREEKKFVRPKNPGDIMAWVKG
T1 sequence (Q9UZC8 whole entry, chain 2 of 2, the tested form may be a part): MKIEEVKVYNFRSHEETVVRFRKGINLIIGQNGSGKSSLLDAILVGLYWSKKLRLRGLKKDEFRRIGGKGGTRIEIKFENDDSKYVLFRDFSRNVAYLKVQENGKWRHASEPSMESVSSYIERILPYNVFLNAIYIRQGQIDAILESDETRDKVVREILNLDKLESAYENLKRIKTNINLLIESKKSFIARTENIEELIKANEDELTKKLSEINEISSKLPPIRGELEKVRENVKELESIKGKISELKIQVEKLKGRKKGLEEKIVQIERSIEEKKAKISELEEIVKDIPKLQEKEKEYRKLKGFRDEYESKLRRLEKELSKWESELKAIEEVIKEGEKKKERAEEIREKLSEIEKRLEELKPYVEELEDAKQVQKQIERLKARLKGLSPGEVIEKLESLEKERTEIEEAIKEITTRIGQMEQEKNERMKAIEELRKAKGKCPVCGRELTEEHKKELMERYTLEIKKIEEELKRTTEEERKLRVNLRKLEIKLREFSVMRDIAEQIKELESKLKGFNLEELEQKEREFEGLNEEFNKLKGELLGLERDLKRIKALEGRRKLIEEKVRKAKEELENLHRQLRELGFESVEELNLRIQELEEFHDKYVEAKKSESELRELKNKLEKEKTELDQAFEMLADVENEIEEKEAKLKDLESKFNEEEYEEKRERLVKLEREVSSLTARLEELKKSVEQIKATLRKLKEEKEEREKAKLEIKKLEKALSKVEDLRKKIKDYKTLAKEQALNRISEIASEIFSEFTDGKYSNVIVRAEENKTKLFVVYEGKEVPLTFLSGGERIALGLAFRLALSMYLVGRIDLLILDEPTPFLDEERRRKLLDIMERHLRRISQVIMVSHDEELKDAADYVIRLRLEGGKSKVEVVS

binding result: binds
B1: purified PCNA (prey of the Mre11/Rad50 pull-down) (natural protein, Pyrococcus abyssi, UniProt Q9UYX8 1-249, looked up)
chain: MPFEIVFEGAKEFAQLIETASRLIDEAAFKVTEEGISMRAMDPSRVVLIDLNLPASIFSKYEVDGEETIGVNMDHLKKVLKRGKAKETLILRKGEENFLEISLQGTATRTFKLPLIDVEEIEVDLPELPFTAKVVILGDVIKEAVKDASLVSDSMKFIAKENEFTMRAEGETQEVEVKLTLEDEGLLDIEVQEETKSAYGISYLSDMVKGLGKADEVTIKFGNEMPMQMEYYIRDEGRLIFLLAPRVEE
notes: it was the prey on Co2+ beads and was detected with anti-PCNA, so it is kept apart from m1; source: purified

— PMC3820547, “An Extended Network of Genomic Maintenance in the Archaeon Pyrococcus abyssi Highlights Unexpected Associations between Eucaryotic Homologs” (PLoS ONE, 2013)
